Reference: patent publication US8741844B2, “Use of mutated antithrombins for treating or preventing coagulation disorders” (Universite Paris-Sud XI, priority 2007, dated 2014)

Experiments:
[1] = tested on: pentasaccharide bound plasma antithrombin (plasma anti-factor Xa activity), HUVEC surface; assay: Rotachrom heparin anti factor Xa assay after pre-incubation of pentasaccharide containing plasma-mutated antithrombin mixture on HUVEC surface; assay type: cell-based, human; settings: 3 μg/mL pentasaccharide
Procedure: Finally to evaluate effect of mutated antithrombin on anti-factor Xa activity in conditions as close as possible to in vivo conditions, Rotachrom® heparin method is used to test anti-factor Xa activity in plasma pre-incubated with mutated antithrombin (0-0.6 g/L, preferably 0.15-0.6 g/L in kinetic buffer), during 30 min at 37° C. on human umbilical vein endothelial cells (HUVEC) in culture. Cells are inoculated at 20 000 cells/cm^2 in 96 well plate and grown to confluence for 24 hours in EGM-2 media (Clonetics, Cambrex). After two wash with phosphate buffer saline (Gibco, Invitrogen) cells are starved for 4 hours in EBM-2 media (Clonetics, Cambrex) and then washed again twice in phosphate buffer saline to prevent excess contamination with heparin present in the culture medium. HUVEC coated wells are then used for 30 min incubation of pentasaccharide containing plasma-mutated antithrombin mixture (125 μl/cm^2) before Rotachrom® heparin assay
To evaluate the role of blood-vessel endothelium, or more precisely, the role of glycosamino-glycans exposed on endothelial cell surface, on competition between natural antithrombin and mutated antithrombin for pentasaccharide binding, the same experiment as described above is done but with pre-incubation of pentasaccharide containing plasma-mutated antithrombin mixture on HUVEC surface (FIG. 8).

[2] = Heparin affinity column elution with NaCl gradient; assay type: binding
Procedure: Conditioned media are thawed, pooled, salt concentration adjusted to 0.4 M NaCl and then applied on an heparin immobilized column (Hitrap Heparin 5 ml or Heparin-sepharose CL6B 50 ml, GE Biological) equilibrated with 10 mM Tris, or with 20 mM phosphate buffer, 0.4 M NaCl and 0.1 mM EDTA, pH 7.4. The bound proteins are eluted in the same buffer with a gradient from 0.4 M to 2 M NaCl. The fractions eluted from 0.8 M NaCl and more contained only wild type antithrombin or mutated antithrombins with high heparin affinity. […] The collected fractions are pooled and the salt concentration is decreased either by over night dialysis against 10 mM Tris, or 20 mM phosphate, and 0.1 M NaCl, pH 7.4 at 4° C. or applied on an HiPrep 26/10 desalting column equilibrated with 10 mM Tris, or 20 mM phosphate, and 0.1 M NaCl, pH 7.4. The antithrombin is then concentrated by ion exchange chromatography using a “Resource Q” 1 ml column (GE, Biological) equilibrated with 10 mM Tris, or 20 mM phosphate, and 0.1 M NaCl, pH 7.4 and eluted in the same buffer with a NaCl gradient from […] to 0.5 M or 20 mM to 0.5 M. The antithrombin concentration in each elution fraction is estimated by absorbance at 280 nm with an absorption coefficient ε=0.65 g^−1·l·cm^−1 and the integrity of purified wild type antithrombin or mutated antithrombins is tested by western blotting using the same couple of antibodies as described before, and electrophoresis on 10% acrylamide/bisacrylamide gel in native and denaturing conditions followed by coomassie brilliant blue R-250 staining (FIG. 4). Then, the antithrombin preparation is aliquoted and stored at −80° C. before use for functional assay. The same procedure is used to purify plasma antithrombin (used as internal reference) from human plasma.

[3] = molecular target: T1, factor Xa (Homo sapiens, UniProt P00742); assay: Kinetic assay of factor Xa inhibition by antithrombins in a purified system (chromogenic substrate, continuous or discontinuous); assay type: biochemical; settings: for factor Xa inhibition in continuous method: saturating pentasaccharide concentration; for anticoagulant / anti-factor Xa activity / inhibition rate constant (kon) for factor Xa: discontinuous method; for factor Xa inhibitory activity: with or without pentasaccharide, compared with plasma / wild type antithrombin
T1 construct: purchased Kordia
Procedure: Briefly, factor Xa is incubated with an excess of tested antithrombins (corresponding to plasma antithrombin, or wild type antithrombin or mutated antithrombins and varying in each assay realized) in the presence or absence of pentasaccharide (Fondaparinux sodique, Arixtra®, GlaxoSmithKline) and the factor Xa residual activity is measured as a function of time. The pentasaccharide is added in excess in the reaction media so that every tested antithrombin is bound to the pentasaccharide. In the absence of pentasaccharide, polybrene is added in order to neutralize any sulfated glycosaminoglycan that may be present in the reaction media. The residual factor Xa activity is measured as the increase in absorbance at 405 nm resulting from cleavage of the chromogenic substrate (S2765 or S2222, Chromogenix) using a microplate reader (Dynatech MR 5000). The analysis of the data is performed using the GraphPad Prism version 3 software. Absorbance recording is continuous or discontinuous according to the expected inhibition rate constant (kon).
The inhibition rate constant (kon) is the second order rate constant given in M^−1·s^−1 which define the velocity of stable complex formation between protease and antithrombin (higher is the kon value, faster will the complex be established).
When the expected kon is lower than 10^4 M^−1·s^−1 the discontinuous method is used. Factor Xa (0.2 to 1 μM, or 0.1 to 1 μM) is incubated with tested antithrombins (0.2 to 10 μM, or 1 to 10 μM) in the presence of pentasaccharide (10 to 100 μM) or polybrene (100 μg/ml) in a final volume of 10 μl for 10 seconds to 5 hours, or 10 seconds to 24 hours. At the end of this incubation period, 190 μl of kinetic buffer containing 200 μM substrate is added and absorbance at 405 nm is recorded.
The kinetic rate constant (k) is estimated by fitting the substrate hydrolysis initial rate curve to equation (1) using non-linear regression with v0 and v∞ being the substrate hydrolysis rate at time to or too respectively. […] (1)
The inhibition rate constant (kon) is calculated from the rate constant (k) using equation (2) where AT is the tested antithrombin concentration. k=AT·kon (2)
When the expected kon is higher than 10^4 M^−1·s^−1′ the continuous method is used. The tested antithrombin (0.01 to 1 μM, or 0.1 to 1 μM) is incubated with the substrate (200 μM) in the presence of pentasaccharide or polybrene in a final volume of 100 μL, or 190 μl, and the reaction is started by addition of 100 μL, or 10 μL, of factor Xa (2 nM or 10 nM). The rate constant (k) is obtained by fitting the substrate hydrolysis curve to equation (3) or (3′) using non-linear regression analysis where A0 is the absorbance at t0, and vi and vs are respectively the initial and final rates of substrate hydrolysis in the absence of tested antithrombin. A405=A0+vi·(1−exp(−k·t))/k. (3) Equation (3′) is also used, particularly in presence of plasma. A405=A0+vs*t+(vi−vs)*(1−exp(−k·t))/k. (3′)
The inhibition rate constant (kon) is calculated from the kinetic constant (k) using equation (4) that takes into account the competitive effect of the substrate, with S being the initial substrate concentration, Km, the Michaelis constant for factor Xa-substrate interaction, AT the tested antithrombin concentration. k=(kon/(1+S/Km))·[AT] (4)
Mutated antithrombins and wild type AT inhibitory activity are measured in the same conditions and compared with plasma AT inhibitory activity.

[4] = in the presence of pentasaccharide

T1 sequence (P00742 235-488 limits assumed): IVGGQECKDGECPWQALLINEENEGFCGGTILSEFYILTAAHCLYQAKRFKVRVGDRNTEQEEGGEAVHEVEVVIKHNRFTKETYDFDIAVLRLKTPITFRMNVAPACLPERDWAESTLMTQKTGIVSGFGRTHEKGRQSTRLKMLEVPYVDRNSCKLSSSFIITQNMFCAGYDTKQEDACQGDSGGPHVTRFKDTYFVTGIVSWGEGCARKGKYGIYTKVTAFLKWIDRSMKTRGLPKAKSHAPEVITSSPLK
T1 sequence (P00742 41-179 partner limits assumed): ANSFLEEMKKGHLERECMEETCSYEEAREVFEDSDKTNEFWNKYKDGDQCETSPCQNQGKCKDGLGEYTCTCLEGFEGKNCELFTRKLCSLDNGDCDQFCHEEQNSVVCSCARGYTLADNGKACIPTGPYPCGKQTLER

AT-N135Q-R393H: human antithrombin with substitution at 393 by Histidine and at 135 by Glutamine
virtual pentasaccharide concentration (residual anti-factor Xa activity) ([1]; ratio 1/1): 1.66 µg/mL | virtual pentasaccharide concentration (residual anti-factor Xa activity) ([1]; ratio 2/1): 0.91 µg/mL | virtual pentasaccharide concentration (residual anti-factor Xa activity) ([1]; ratio 4/1): 0.26 µg/mL | elution from heparin affinity column compared with wild type antithrombin [2]: higher ionic strength than wild type antithrombin | factor Xa inhibition in continuous method [3]: slow factor Xa inhibitors | anticoagulant / anti-factor Xa activity [3, 4]: largely reduced | inhibition rate constant (kon) for factor Xa [3, 4]: 4415 M⁻¹ s⁻¹ | factor Xa inhibitory activity [3]: negligible

B1: AT-N135Q-ΔR393-S394: human antithrombin with deletion of positions 393 and 394 and substitution at 135 by Glutamine (protein, listed as Homo sapiens)
chain: HGSPVDICTAKPRDIPMNPMCIYRSPEKKATEDEGSEQKIPEATNRRVWELSKANSRFATTFYQHLADSKNDNDNIFLSPLSISTAFAMTKLGACNDTLQQLMEVFKFDTISEKTSDQIHFFFAKLNCRLYRKAQKSSKLVSANRLFGDKSLTFNETYQDISELVYGAKLQPLDFKENAEQSRAAINKWVSNKTEGRITDVIPSEAINELTVLVLVNTIYFKGLWKSKFSPENTRKELFYKADGESCSASMMYQEGKFRYRRVAEGTQVLELPFKGDDITMVLILPKPEKSLAKVEKELTPEVLQEWLDELEEMMLVVHMPRFRIEDGFSLKEQLQDMGLVDLFSPEKSKLPGIVAEGRDDLYVSDAFHKAFLEVNEEGSEAAASTAVVIAGLNPNRVTFKANRPFLVFIREVPLNTIIFMGRVANPCVK
elution from heparin affinity column compared with wild type antithrombin [2]: higher ionic strength than wild type antithrombin | factor Xa inhibitory activity [3]: negligible

B2: AT-N135Q-Pro394: human antithrombin with Proline inserted between 393 and 394 and substitution at 135 by Glutamine (protein, listed as Homo sapiens)
chain: HGSPVDICTAKPRDIPMNPMCIYRSPEKKATEDEGSEQKIPEATNRRVWELSKANSRFATTFYQHLADSKNDNDNIFLSPLSISTAFAMTKLGACNDTLQQLMEVFKFDTISEKTSDQIHFFFAKLNCRLYRKAQKSSKLVSANRLFGDKSLTFNETYQDISELVYGAKLQPLDFKENAEQSRAAINKWVSNKTEGRITDVIPSEAINELTVLVLVNTIYFKGLWKSKFSPENTRKELFYKADGESCSASMMYQEGKFRYRRVAEGTQVLELPFKGDDITMVLILPKPEKSLAKVEKELTPEVLQEWLDELEEMMLVVHMPRFRIEDGFSLKEQLQDMGLVDLFSPEKSKLPGIVAEGRDDLYVSDAFHKAFLEVNEEGSEAAASTAVVIAGRPSLNPNRVTFKANRPFLVFIREVPLNTIIFMGRVANPCVK
virtual pentasaccharide concentration (residual anti-factor Xa activity) ([1]; ratio 1/1): 1.69 µg/mL | virtual pentasaccharide concentration (residual anti-factor Xa activity) ([1]; ratio 2/1): 0.94 µg/mL | virtual pentasaccharide concentration (residual anti-factor Xa activity) ([1]; ratio 4/1): 0.27 µg/mL | elution from heparin affinity column compared with wild type antithrombin [2]: higher ionic strength than wild type antithrombin | factor Xa inhibition in continuous method [3]: slow factor Xa inhibitors | anticoagulant / anti-factor Xa activity [3, 4]: almost devoid of anti-factor Xa activity | inhibition rate constant (kon) for factor Xa [3, 4]: 33 M⁻¹ s⁻¹ | kon, times lower than plasma AT [3, 4]: at least 7600 times | factor Xa inhibitory activity [3]: negligible
